Numbering of substitutions follows the chain as printed. In names and notes the source's numbering stands.
Key:
[1] = target: T1, N-terminally His-tagged FlgI (Salmonella enterica serovar Typhimurium, UniProt P15930 20-365); assay: SPR; Biacore T200, 25 °C; FlgA or FlgA R113C-S190C immobilised on CM5 chip by amine coupling, FlgI as analyte; 10 mM HEPES, 150 mM NaCl, 0.05% Surfactant P20, pH 7.4; two-state reaction model; details: both partners purified
T1 construct: FlgI, flagellar P-ring component protein, Salmonella enterica serovar Typhimurium; Probably without its Sec signal peptide (surmise); also called His-FlgI; source: E. coli Origami2 (DE3), co-expressed, in cell extract (pull-down); purified (SPR); not shown: His tag, N-terminal, kept
T1 sequence (looked up): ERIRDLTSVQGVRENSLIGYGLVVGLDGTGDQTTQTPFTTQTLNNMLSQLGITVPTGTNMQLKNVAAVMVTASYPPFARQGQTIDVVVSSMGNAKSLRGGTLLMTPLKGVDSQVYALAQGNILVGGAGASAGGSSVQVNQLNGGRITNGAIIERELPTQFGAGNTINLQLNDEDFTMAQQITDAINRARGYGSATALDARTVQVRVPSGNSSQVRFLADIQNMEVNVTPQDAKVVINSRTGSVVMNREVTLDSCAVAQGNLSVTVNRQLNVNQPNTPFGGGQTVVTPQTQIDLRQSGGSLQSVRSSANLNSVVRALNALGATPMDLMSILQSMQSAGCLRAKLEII

[2] = target: T1, N-terminally His-tagged FlgI; assay: SPR; Biacore T200, 25 °C; FlgI immobilised on CM5 chip by amine coupling, FlgA or FlgA R113C-S190C as analyte; 10 mM HEPES, 150 mM NaCl, 0.05% Surfactant P20, pH 7.4; two-state reaction model; details: both partners purified

B1: FlgA_(R113C-S190C) (purified, histidine tag removed) (natural protein)
chain: QDINAQLTTWFSQRLAGFSDEVVVTLRSSPNLLPSCEQPAFSMTGSAKLWGNVNVVARCANEKRYLQVNVQATGNYVAVAAPIARGGKLTPANVTLKRGRLDQLPPRTVLDICQIQDAVSLRDLAPGQPVQLTMIRQAWRVKAGQRVQVIANGEGFSVNAEGQAMNNAAVAQNARVRMTSGQIVSGTVDCDGNILINL
modifications: engineered disulfide bond between C113 and C190
notes: FlgA, Salmonella enterica serovar Typhimurium, with R113C and S190C; numbers count on: the mature protein; also called covalently closed form of FlgA; source: purified; N-terminal-fused histidine tag removed with thrombin prior to gel filtration; not shown: His tag, N-terminal, cleaved
Kd [1]: 166 nM | Kd [2]: 106 nM

B2: FlgA (purified, histidine tag removed) (natural protein, Salmonella enterica serovar Typhimurium)
chain: B1 chain with C113R, C190S
notes: FlgA, Salmonella enterica serovar Typhimurium; numbers count on: the mature protein (Q1-L198); The crystallised FlgA was another construct (C-terminal hexa-histidine-tagged precursor purified from the periplasm of E. coli); source: purified; N-terminal-fused histidine tag removed with thrombin prior to gel filtration; not shown: His tag, N-terminal, cleaved
Kd [1]: 354 nM | Kd [2]: 126 nM
